According to article PMC10761686:

What was measured:
[1] = target: actin from rabbit skeletal muscle, as filaments (F-actin) capped at their barbed ends by gelsolin (rabbit) (UniProt P68135)
[2] = target: actin from rabbit skeletal muscle, as filaments (F-actin) capped at their barbed ends by gelsolin (rabbit) (UniProt P68135); remark: listed apart in the source

Substance: tropomodulin 1 (TMOD1) with the patient variant p.R189W, purified recombinant human (from UniProt P28289-1 1-359) (natural protein)
- inhibition of pyrene-actin depolymerisation from pointed ends against TMOD1^wt, long filaments (1:100 gelsolin to actin), without TPM1 (fold weaker than TMOD1^wt) [1]: 2
- inhibition of pyrene-actin depolymerisation from pointed ends against TMOD1^wt, short filaments (1:10 gelsolin to actin), without TPM1 (fold weaker than TMOD1^wt) [1]: 5
- capping activity against TMOD1^wt: inhibition of pyrene-actin polymerisation at pointed ends of long filaments (1:100 gelsolin to actin), without TPM1 (fold weaker than TMOD1^wt) [2]: 2
- capping activity against TMOD1^wt: inhibition of pyrene-actin polymerisation at pointed ends of short filaments (1:10 gelsolin to actin), without TPM1 (fold weaker than TMOD1^wt) [2]: 2
